Columns and labels:
NRG1 = NRG1 (UniProt Q02297); assay: cell-based or functional assay
HF310 (HER3-500) = molecular target: T1, HF310 (HER3-500) (human, UniProt P21860 20-519); assay: 125I-HRG cross-linking normalised by anti-HER3 Western blot densitometry
T1 construct: also called HER3-501; HF310T
Experimental: Binding was performed by mixing increasing amounts of supernatants (from 2.5 μl-20 μl of supernatant) with 5 nM of ¹²⁵I-HRG in a total volume of 20 μl of Hepes buffer (pH 7.5) at room temperature for 2 hours. 1 mM of the BS₃ crosslinker was added at the end of the binding assay to cross-link the bound molecules. Binding reactions were separated on an SDS-PAGE gel. The protein gel was dried and exposed to a film for 2 and 6 hours.
A parallel Western blot with an anti-HER3 antibody (R&D Systems), followed by densitometry was used to estimate relative HER3-derivative levels and then to normalize ligand binding to each protein based on equal number of binding sites, which are the equivalent to anti-HER3 binding sites.

[1] = molecular target: EN2320 (HER3/Fc homodimer) (human, UniProt P21860 20-640); assay: SPR (Biacore 8K), trap on anti-human Fc chip
Chain of EN2320 (HER3/Fc homodimer) (P21860 20-640 Y265A): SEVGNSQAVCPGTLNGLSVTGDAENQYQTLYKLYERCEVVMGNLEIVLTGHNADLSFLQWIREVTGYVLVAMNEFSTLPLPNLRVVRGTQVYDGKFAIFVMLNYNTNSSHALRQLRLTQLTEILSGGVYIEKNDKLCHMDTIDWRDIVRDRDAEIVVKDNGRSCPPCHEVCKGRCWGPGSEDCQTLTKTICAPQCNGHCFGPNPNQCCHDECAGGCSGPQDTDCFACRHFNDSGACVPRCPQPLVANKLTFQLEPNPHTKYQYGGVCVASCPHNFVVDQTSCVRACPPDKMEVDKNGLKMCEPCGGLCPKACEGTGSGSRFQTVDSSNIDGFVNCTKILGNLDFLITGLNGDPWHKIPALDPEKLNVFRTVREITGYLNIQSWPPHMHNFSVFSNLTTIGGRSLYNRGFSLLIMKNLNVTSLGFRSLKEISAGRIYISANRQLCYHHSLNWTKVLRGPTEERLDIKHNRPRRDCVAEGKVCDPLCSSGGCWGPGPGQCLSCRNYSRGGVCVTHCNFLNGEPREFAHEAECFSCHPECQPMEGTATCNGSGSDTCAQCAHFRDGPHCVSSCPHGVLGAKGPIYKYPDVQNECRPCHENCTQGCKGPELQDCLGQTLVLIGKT

T1 sequence (P21860 20-519 limits assumed): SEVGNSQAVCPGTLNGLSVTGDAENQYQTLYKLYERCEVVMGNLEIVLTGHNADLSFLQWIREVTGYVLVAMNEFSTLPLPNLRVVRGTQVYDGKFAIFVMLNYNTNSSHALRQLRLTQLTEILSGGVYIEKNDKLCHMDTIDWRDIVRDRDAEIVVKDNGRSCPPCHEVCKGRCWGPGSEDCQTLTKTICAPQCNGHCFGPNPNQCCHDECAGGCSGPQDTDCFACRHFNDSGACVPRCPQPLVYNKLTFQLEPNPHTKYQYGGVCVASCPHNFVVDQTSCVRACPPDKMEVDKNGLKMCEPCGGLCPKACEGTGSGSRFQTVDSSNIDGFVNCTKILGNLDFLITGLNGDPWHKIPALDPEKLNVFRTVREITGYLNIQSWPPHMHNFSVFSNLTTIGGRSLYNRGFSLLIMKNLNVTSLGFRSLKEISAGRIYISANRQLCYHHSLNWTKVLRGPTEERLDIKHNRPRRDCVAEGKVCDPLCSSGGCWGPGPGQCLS

Molecule	Approximate EC50, inhibition of NRG1-β-induced HER3 phosphorylation (MCF7 cells, phosphotyrosine ELISA) (NRG1)	binding result (HF310 (HER3-500))	Kd [1]	koff [1]	kon [1]
HER3^Y246A/Fc (from UniProt P21860 20-640) (Fc fusion)	1.5 nM				
heregulin (HRG) (ligand, UniProt Q02297-6 177-241, looked up, also: 125I label, site not given here, also called HRG1β1) SHLVKCAEKEKTFCVNGGECFMVKDLSNPSRYLCKCPNEFTGDRCQNYVMASFYKHLGIEFMEAE		binds			
NRG1 (ligand, UniProt Q02297-6 177-241, looked up, also called NRG1_R&D; NRG1-R&D) SHLVKCAEKEKTFCVNGGECFMVKDLSNPSRYLCKCPNEFTGDRCQNYVMASFYKHLGIEFMEAE			0.389 nM	0.379 s⁻¹	9.76e+08 M⁻¹ s⁻¹
NRG2-beta (ligand, UniProt O14511-3 341-405, looked up) HARKCNETAKSYCVNGGVCYYIEGINQLSCKCPNGFFGQRCLEKLPLRLYMPDPKQKHLGFELKE			43.3 nM	0.0247 s⁻¹	571000 M⁻¹ s⁻¹
